Reference: IntAct's records for PubMed 29039417

B1: BBSome complex member BBS5 (Homo sapiens), Q8N3I7 (parent)
chain: MSVLDALWEDRDVRFDLSAQQMKTRPGEVLIDCLDSIEDTKGNNGDRGRLLVTNLRILWHSLALSRVNVSVGYNCILNITTRTANSKLRGQTEALYILTKCNSTRFEFIFTNLVPGSPRLFTSVMAVHRAYETSKMYRDFKLRSALIQNKQLRLLPQEHVYDKINGVWNLSSDQGNLGTFFITNVRIVWHANMNDSFNVSIPYLQIRSIKIRDSKFGLALVIESSQQSGGYVLGFKIDPVEKLQESVKEINSLHKVYSASPIFGVDYEMEEKPQPLEALTVEQIQDDVEIDSDGHTDAFVAYFADGNKQQDREPVFSEELGLAIEKLKDGFTLQGLWEVMS
partner: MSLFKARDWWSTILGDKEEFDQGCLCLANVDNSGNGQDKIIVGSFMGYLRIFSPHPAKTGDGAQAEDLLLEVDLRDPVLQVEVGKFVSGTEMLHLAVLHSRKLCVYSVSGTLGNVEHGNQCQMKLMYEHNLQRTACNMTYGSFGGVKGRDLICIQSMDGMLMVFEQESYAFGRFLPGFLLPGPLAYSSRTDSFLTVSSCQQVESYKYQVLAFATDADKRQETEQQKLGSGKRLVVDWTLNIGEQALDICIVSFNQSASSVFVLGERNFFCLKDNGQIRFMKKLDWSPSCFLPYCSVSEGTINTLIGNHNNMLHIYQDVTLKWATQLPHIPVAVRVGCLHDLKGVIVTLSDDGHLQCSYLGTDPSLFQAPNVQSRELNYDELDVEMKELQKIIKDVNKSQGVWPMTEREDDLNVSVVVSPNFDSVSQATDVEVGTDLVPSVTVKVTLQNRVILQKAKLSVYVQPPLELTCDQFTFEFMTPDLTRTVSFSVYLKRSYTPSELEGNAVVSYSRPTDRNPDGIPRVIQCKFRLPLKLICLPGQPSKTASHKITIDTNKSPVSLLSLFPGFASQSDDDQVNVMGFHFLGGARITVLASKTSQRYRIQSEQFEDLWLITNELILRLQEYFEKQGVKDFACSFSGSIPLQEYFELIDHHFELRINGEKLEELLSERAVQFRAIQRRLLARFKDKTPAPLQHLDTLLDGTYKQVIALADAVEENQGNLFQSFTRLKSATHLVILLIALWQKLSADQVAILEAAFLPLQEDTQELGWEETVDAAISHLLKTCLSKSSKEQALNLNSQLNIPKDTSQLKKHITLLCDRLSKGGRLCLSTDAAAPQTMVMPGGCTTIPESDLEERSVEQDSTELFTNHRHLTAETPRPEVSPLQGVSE

Variants of: B1
Settings: with pthb1_human BBS9, Q3SYG4

Effect of a mutation on the interaction, with no effect:
MSVLDALWEDRDVRFDLSAQQMKTRPGEVLIDCLDSIEDTKGNNGDRGRLLVTNLRILWHSLALSRVNVSVGYNCILNITTRTANSKLRGQTEALYILTKCNSTRFEFIFTKLVPGSPRLFTSVMAVHRAYETSKMYRDFKLRSALIQNKQLRLLPQEHVYDKINGVWNLSSDQGNLGTFFITNVRIVWHANMNDSFNVSIPYLQIRSIKIRDSKFGLALVIESSQQSGGYVLGFKIDPVEKLQESVKEINSLHKVYSASPIFGVDYEMEEKPQPLEALTVEQIQDDVEIDSDGHTDAFVAYFADGNKQQDREPVFSEELGLAIEKLKDGFTLQGLWEVMS [N112K]
MSVLDALWEDRDVRFDLSAQQMKTRPGEVLIDCLDSIEDTKGNNGDRGRLLVTNLRILWHSLALSRVNVSVGYNCILNITTRTANSKLRGQTEALYILTKCNSTRFEFIFTALVPGSPRLFTSVMAVHRAYETSKMYRDFKLRSALIQNKQLRLLPQEHVYDKINGVWNLSSDQGNLGTFFITNVRIVWHANMNDSFNVSIPYLQIRSIKIRDSKFGLALVIESSQQSGGYVLGFKIDPVEKLQESVKEINSLHKVYSASPIFGVDYEMEEKPQPLEALTVEQIQDDVEIDSDGHTDAFVAYFADGNKQQDREPVFSEELGLAIEKLKDGFTLQGLWEVMS [N112A]
MSVLDALWEDRDVRFDLSAQQMKTRPGEVLIDCLDSIEDTKGNNGDRGRLLVTNLRILWHSLALSRVNVSVGYNCILNITTRTANSKLRGQTEALYILTKCNSTRFEFIFTELVPGSPRLFTSVMAVHRAYETSKMYRDFKLRSALIQNKQLRLLPQEHVYDKINGVWNLSSDQGNLGTFFITNVRIVWHANMNDSFNVSIPYLQIRSIKIRDSKFGLALVIESSQQSGGYVLGFKIDPVEKLQESVKEINSLHKVYSASPIFGVDYEMEEKPQPLEALTVEQIQDDVEIDSDGHTDAFVAYFADGNKQQDREPVFSEELGLAIEKLKDGFTLQGLWEVMS [N112E]
MSVLDALWEDRDVRFDLSAQQMKTRPGEVLIDCLDSIEDTKGNNGDRGRLLVTNLRILWHSLALSRVNVSVGYNCILNITTRTANSKLRGQTEALYILTKCNSTRFEFIFKNLVPGSPRLFTSVMAVHRAYETSKMYRDFKLRSALIQNKQLRLLPQEHVYDKINGVWNLSSDQGNLGTFFITNVRIVWHANMNDSFNVSIPYLQIRSIKIRDSKFGLALVIESSQQSGGYVLGFKIDPVEKLQESVKEINSLHKVYSASPIFGVDYEMEEKPQPLEALTVEQIQDDVEIDSDGHTDAFVAYFADGNKQQDREPVFSEELGLAIEKLKDGFTLQGLWEVMS [T111K]
MSVLDALWEDRDVRFDLSAQQMKTRPGEVLIDCLDSIEDTKGNNGDRGRLLVTNLRILWHSLALSRVNVSVGYNCILNITTRTANSKLRGQTEALYILTKCNSTRFEFIFANLVPGSPRLFTSVMAVHRAYETSKMYRDFKLRSALIQNKQLRLLPQEHVYDKINGVWNLSSDQGNLGTFFITNVRIVWHANMNDSFNVSIPYLQIRSIKIRDSKFGLALVIESSQQSGGYVLGFKIDPVEKLQESVKEINSLHKVYSASPIFGVDYEMEEKPQPLEALTVEQIQDDVEIDSDGHTDAFVAYFADGNKQQDREPVFSEELGLAIEKLKDGFTLQGLWEVMS [T111A]
MSVLDALWEDRDVRFDLSAQQMKTRPGEVLIDCLDSIEDTKGNNGDRGRLLVTNLRILWHSLALSRVNVSVGYNCILNITTRTANSKLRGQTEALYILTKCNSTRFEFIFENLVPGSPRLFTSVMAVHRAYETSKMYRDFKLRSALIQNKQLRLLPQEHVYDKINGVWNLSSDQGNLGTFFITNVRIVWHANMNDSFNVSIPYLQIRSIKIRDSKFGLALVIESSQQSGGYVLGFKIDPVEKLQESVKEINSLHKVYSASPIFGVDYEMEEKPQPLEALTVEQIQDDVEIDSDGHTDAFVAYFADGNKQQDREPVFSEELGLAIEKLKDGFTLQGLWEVMS [T111E]
MSVLDALWEDRDVRFDLSAQQMKTRPGEVLIDCLDSIEDTKGNNGDRGRLLVTNLRILWHSLALSRVNVSVGYNCILNITTRTANSKLRGQTEALYILTKCNSTRFEFIFTNLAPGSPRLFTSVMAVHRAYETSKMYRDFKLRSALIQNKQLRLLPQEHVYDKINGVWNLSSDQGNLGTFFITNVRIVWHANMNDSFNVSIPYLQIRSIKIRDSKFGLALVIESSQQSGGYVLGFKIDPVEKLQESVKEINSLHKVYSASPIFGVDYEMEEKPQPLEALTVEQIQDDVEIDSDGHTDAFVAYFADGNKQQDREPVFSEELGLAIEKLKDGFTLQGLWEVMS [V114A]
MSVLDALWEDRDVRFDLSAQQMKTRPGEVLIDCLDSIEDTKGNNGDRGRLLVTNLRILWHSLALSRVNVSVGYNCILNITTRTANSKLRGQTEALYILTKCNSTRFEFIFTNLEPGSPRLFTSVMAVHRAYETSKMYRDFKLRSALIQNKQLRLLPQEHVYDKINGVWNLSSDQGNLGTFFITNVRIVWHANMNDSFNVSIPYLQIRSIKIRDSKFGLALVIESSQQSGGYVLGFKIDPVEKLQESVKEINSLHKVYSASPIFGVDYEMEEKPQPLEALTVEQIQDDVEIDSDGHTDAFVAYFADGNKQQDREPVFSEELGLAIEKLKDGFTLQGLWEVMS [V114E]
MSVLDALWEDRDVRFDLSAQQMKTRPGEVLIDCLDSIEDTKGNNGDRGRLLVTNLRILWHSLALSRVNVSVGYNCILNITTRTANSKLRGQTEALYILTKCNSTRFEFIFTNLKPGSPRLFTSVMAVHRAYETSKMYRDFKLRSALIQNKQLRLLPQEHVYDKINGVWNLSSDQGNLGTFFITNVRIVWHANMNDSFNVSIPYLQIRSIKIRDSKFGLALVIESSQQSGGYVLGFKIDPVEKLQESVKEINSLHKVYSASPIFGVDYEMEEKPQPLEALTVEQIQDDVEIDSDGHTDAFVAYFADGNKQQDREPVFSEELGLAIEKLKDGFTLQGLWEVMS [V114K]
MSVLDALWEDRDVRFDLSAQQMKTRPGEVLIDCLDSIEDTKGNNGDRGRLLVTNLRILWHSLALSRVNVSVGYNCILNITTRTANSKLRGQTEALYILTKCNSTRFEFIFTNEVPGSPRLFTSVMAVHRAYETSKMYRDFKLRSALIQNKQLRLLPQEHVYDKINGVWNLSSDQGNLGTFFITNVRIVWHANMNDSFNVSIPYLQIRSIKIRDSKFGLALVIESSQQSGGYVLGFKIDPVEKLQESVKEINSLHKVYSASPIFGVDYEMEEKPQPLEALTVEQIQDDVEIDSDGHTDAFVAYFADGNKQQDREPVFSEELGLAIEKLKDGFTLQGLWEVMS [L113E]
MSVLDALWEDRDVRFDLSAQQMKTRPGEVLIDCLDSIEDTKGNNGDRGRLLVTNLRILWHSLALSRVNVSVGYNCILNITTRTANSKLRGQTEALYILTKCNSTRFEFIFTNKVPGSPRLFTSVMAVHRAYETSKMYRDFKLRSALIQNKQLRLLPQEHVYDKINGVWNLSSDQGNLGTFFITNVRIVWHANMNDSFNVSIPYLQIRSIKIRDSKFGLALVIESSQQSGGYVLGFKIDPVEKLQESVKEINSLHKVYSASPIFGVDYEMEEKPQPLEALTVEQIQDDVEIDSDGHTDAFVAYFADGNKQQDREPVFSEELGLAIEKLKDGFTLQGLWEVMS [L113K]
MSVLDALWEDRDVRFDLSAQQMKTRPGEVLIDCLDSIEDTKGNNGDRGRLLVTNLRILWHSLALSRVNVSVGYNCILNITTRTANSKLRGQTEALYILTKCNSTRFEFIFTNAVPGSPRLFTSVMAVHRAYETSKMYRDFKLRSALIQNKQLRLLPQEHVYDKINGVWNLSSDQGNLGTFFITNVRIVWHANMNDSFNVSIPYLQIRSIKIRDSKFGLALVIESSQQSGGYVLGFKIDPVEKLQESVKEINSLHKVYSASPIFGVDYEMEEKPQPLEALTVEQIQDDVEIDSDGHTDAFVAYFADGNKQQDREPVFSEELGLAIEKLKDGFTLQGLWEVMS [L113A]
MSVLDALWEDRDVRFDLSAQQMKTRPGEVLIDCLDSIEDTKGNNGDRGRLLVTNLRILWHSLALSRVNVSVGYNCILNITTRTANSKLRGQTEALYILTKCNSTRFEFIFTNLVKGSPRLFTSVMAVHRAYETSKMYRDFKLRSALIQNKQLRLLPQEHVYDKINGVWNLSSDQGNLGTFFITNVRIVWHANMNDSFNVSIPYLQIRSIKIRDSKFGLALVIESSQQSGGYVLGFKIDPVEKLQESVKEINSLHKVYSASPIFGVDYEMEEKPQPLEALTVEQIQDDVEIDSDGHTDAFVAYFADGNKQQDREPVFSEELGLAIEKLKDGFTLQGLWEVMS [P115K]
MSVLDALWEDRDVRFDLSAQQMKTRPGEVLIDCLDSIEDTKGNNGDRGRLLVTNLRILWHSLALSRVNVSVGYNCILNITTRTANSKLRGQTEALYILTKCNSTRFEFIFTNLVAGSPRLFTSVMAVHRAYETSKMYRDFKLRSALIQNKQLRLLPQEHVYDKINGVWNLSSDQGNLGTFFITNVRIVWHANMNDSFNVSIPYLQIRSIKIRDSKFGLALVIESSQQSGGYVLGFKIDPVEKLQESVKEINSLHKVYSASPIFGVDYEMEEKPQPLEALTVEQIQDDVEIDSDGHTDAFVAYFADGNKQQDREPVFSEELGLAIEKLKDGFTLQGLWEVMS [P115A]
MSVLDALWEDRDVRFDLSAQQMKTRPGEVLIDCLDSIEDTKGNNGDRGRLLVTNLRILWHSLALSRVNVSVGYNCILNITTRTANSKLRGQTEALYILTKCNSTRFEFIFTNLVEGSPRLFTSVMAVHRAYETSKMYRDFKLRSALIQNKQLRLLPQEHVYDKINGVWNLSSDQGNLGTFFITNVRIVWHANMNDSFNVSIPYLQIRSIKIRDSKFGLALVIESSQQSGGYVLGFKIDPVEKLQESVKEINSLHKVYSASPIFGVDYEMEEKPQPLEALTVEQIQDDVEIDSDGHTDAFVAYFADGNKQQDREPVFSEELGLAIEKLKDGFTLQGLWEVMS [P115E]
MSVLDALWEDRDVRFDLSAQQMKTRPGEVLIDCLDSIEDTKGNNGDRGRLLVTNLRILWHSLALSRVNVSVGYNCILNITTRTANSKLRGQTEALYILTKCNSTRFEFIKTNLVPGSPRLFTSVMAVHRAYETSKMYRDFKLRSALIQNKQLRLLPQEHVYDKINGVWNLSSDQGNLGTFFITNVRIVWHANMNDSFNVSIPYLQIRSIKIRDSKFGLALVIESSQQSGGYVLGFKIDPVEKLQESVKEINSLHKVYSASPIFGVDYEMEEKPQPLEALTVEQIQDDVEIDSDGHTDAFVAYFADGNKQQDREPVFSEELGLAIEKLKDGFTLQGLWEVMS [F110K]
MSVLDALWEDRDVRFDLSAQQMKTRPGEVLIDCLDSIEDTKGNNGDRGRLLVTNLRILWHSLALSRVNVSVGYNCILNITTRTANSKLRGQTEALYILTKCNSTRFEFIETNLVPGSPRLFTSVMAVHRAYETSKMYRDFKLRSALIQNKQLRLLPQEHVYDKINGVWNLSSDQGNLGTFFITNVRIVWHANMNDSFNVSIPYLQIRSIKIRDSKFGLALVIESSQQSGGYVLGFKIDPVEKLQESVKEINSLHKVYSASPIFGVDYEMEEKPQPLEALTVEQIQDDVEIDSDGHTDAFVAYFADGNKQQDREPVFSEELGLAIEKLKDGFTLQGLWEVMS [F110E]
